Reference: the DeepSol protein solubility set

test: soluble on expression in E. coli; label from the status in PepcDB or PDB records

Sequence | soluble on expression in E. coli
MSLREDLLEETRKSCQKKIDELEDALSELKKETSQKDHHIKQLEEDNNSNIEWYQNKIEALKKDYESVITSVDSKQTDIEKLQYKVKSLEKEIEEDKIRLHTYNVMDETINDDSLRKELEKSKINLTDAYSQIKEYKDLYETTSQSLQQTNSKLDESFKDFTNQIKNLTDEKTSLEDKISLLKEQMFNLNNELDLQKKGMEKEKADFKKRISILQNNNKEVEAVKSEYESKLSKIQNDLDQQTIYANTAQNNYEQELQKHADVSKTISELREQLHTYKGQVKTLNLSRDQLENALKENEKSWSSQKESLLEQLDLSNSRIEDLSSQNKLLYDQIQIYTAADKEVNNSTNGPGLNNILITLRRERDILDTKVTVAERDAKMLRQKISLMDVELQDARTKLDNSRVEKENHSSIIQQHDDIMEKLNQLNLLRESNITLRNELENNNNKKKELQSELDKLKQNVAPIESELTALKYSMQEKEQELKLAKEEVHRWKKRSQDILEKHEQLSSSDYEKLESEIENLKEELENKERQGAEAEEKFNRLRRQAQERLKTSKLSQDSLTEQVNSLRDAKNVLENSLSEANARIEELQNAKVAQGNNQLEAIRKLQEDAEKASRELQAKLEESTTSYESTINGLNEEITTLKEEIEKQRQIQQQLQATSANEQNDLSNIVESMKKSFEEDKIKFIKEKTQEVNEKILEAQERLNQPSNINMEEIKKKWESEHEQEVSQKIREAEEALKKRIRLPTEEKINKIIERKKEELEKEFEEKVEERIKSMEQSGEIDVVLRKQLEAKVQEKQKELENEYNKKLQEELKDVPHSSHISDDERDKLRAEIESRLREEFNNELQAIKKKSFDEGKQQAMMKTTLLERKLAKMESQLSETKQSAESPPKSVNNVQNPLLGLPRKIEENSNSPFNPLLSGEKLLKLNSKSSSGGFNPFTSPSPNKHLQNDNDKRESLANKTDPPTHLEPSFNIPASREGHHHHHH | soluble
LAGIAGVDRDPPGWPQHSHLLAGDPERFRHQLQRAETTNSIECFVAEWHHAGVAADMTRPWPTVVQGGAGQRRRRDVEPDRKTPVRWMSGQRLSEITWPTTDIEHSVGAAEVQRHRGAVPLGSGGDAAGKVEGGRTPQPFVQP | not soluble
GPHMASAEEKLEKKLELDPNCKEPLQVLPPTVVDQIRLWQLELDRVITYEGSLYSDFETSQEYNLLSKYAQDIGVLLWKDDKKKKFFISKEGNSQVLDFAKRKLKKKQ | soluble
MLIRTEAPADILTVDRLVRSAFDTEAEAKLVMSLRENSHLTLALVACSDDGEVIGHCLFSPVTLNGDDLNWQGLAPLCVKKEHQKQGIAEALVKEGLEMLTELGYPVVVVLGDSNYYQRFGFESATNYDMHSKWEVPEGAFMIKACSSEFLEGRSGLIEYCPEFDVL | not soluble
MAHHHHHHMRRCFKLQAPPGVLSILSDLAQPRTSTSYQELLRNSHLPAQPLPFLPPPRWAAELSRVLHRTFPDVVQHHHTRFLQVFVHPSFTTAAGVSGTMQPLVAVGESLLERIGGLWILATFESTRREEYASLLALLTSDTALCRVLRDHWRLEHMVLTDASADLFSRQRLSSTKGLVCWLSSHGNVNGAQSLPEPFGAGCVKAMVAAVLLEHGNDAAEHFVKSEVLPYVL | not soluble
SERCDDWGLDTMRQIQVFEDEPARIKCPLFEHFLKFNYSTAHSAGLTLIWYWTRQDRDLEEPINFRLPENRISKEKDVLWFRPTLLNDTGNYTCMLRNTTYCSKVAFPLEVVQKDSCFNSPMKLPVHKLYIEYGIQRITCPNVDGYFPSSVKPTITWYMGCYKIQNFNNVIPEGMNLSFLIALISNNGNYTCVVTYPENGRTFHLTRTLTVKVVGSPKNAVPPVIHSPNDHVVYEKEPGEELLIPCTVYFSFLMDSRNEVWWTIDGKKPDDITIDVTINESISHSRTEDETRTQILSIKKVTSEDLKRSYVCHARSAKGEVAKAAKVKQKGNRCGQ | soluble
ADVHDKATRSKNMRAIATRDTAIEKRLASLLTGQGLAFRVQDASLPGRPDFVVDEYRCVIFTHGCFWHHHHCYLFKVPATRTEFWLEKIGKNVERDRRDISRLQELGWRVLIVWECALRGREKLTDEALTERLEEWICGEGASAQIDTQGIHLLA | soluble
MAKVIFQDNFLLMGTNYHEKEANKVMAEIGKKSPYWDKDKDFISDYIKSNFKDIYKYYRVSTKDVEIVREPLNRHDPNAIKVMVNKTFVGYFPADLAKRLTPYVKKSSHYQMEATLTGRGGQYKTLKNDLKTVVTKKKDITYKLRLTILKVDRVSKSKNAGLLESIASWFLNLEHHHHHH | soluble
GKNLNWDFDANISFNRNKISGLPGDQFAQGWSKADNVFLQRNGMPIGTIYGFVEDGFYDNIAEVRADPFYAKESEAVCKAMVGEVKYKDFDGVAGITNADRQVIGDTNPDFTFGMTHNFTYKNFSLSFFLQGCVGGDIFNANLLEVTMSGIGNIPQNIYESRWTPENRENAKWPKAYAGYGRTMKLSDRYVEDGSYLRMKNINLGYKFISPFKGIESINLFASVSNVFTISGYSWYDPDVNSFGSDASRRGVDLFSYPSSRTFSFGLQCTF | not soluble
MSLHPVQHSAREQVNAQVLSAASQKIESLAQQRQWHDYRYTFKVYISSQIATAAPCATTPGVTLTSPVDIALNRMNFTVSCPQSWQMNVAVRPDVLVPVVMAKSLVARDTPLTANDVELKPYNVSAQRREVLMELDDAIGLSSKHALQPGKPITKEELVSPVLVGRDQPVMIVYQSAGITASMPGVALKNGRKGEMVKVRNASSQRVISAMVAESGVVTTVGAEEGHHHHHH | soluble
TLPRPFFILAPMEDVTNIVFRHVVSEAARPDVFFTEFTNTESYCHPEGIHSVRGRLTFSDDEQPMVAHIWGDKPEQFREMSIGLADMGFKGIDLNMGCPVANVAKKGKGSGLILRPETAAEIIQASKAGGLPVSVKTRLGYYDIDEWRDWLKHVFEQDIANLSIHLRTRKEMSKVDAHWELIEAIKTLRDEIAPNTLLTINGDIPDRQTGLELANKYGIDGIMIGRGIFHNPFAFEKEPREHSSKELLGL | not soluble
MSLEPKYQRILIKLSGEALAGEKGVGIDIPTVQAIAKEIAEVHVSGVQIALVIGGGNLWRGEPAADAGMDRVQADYTGMLGTVMNALVMADSLQHYGVDTRVQTAIPMQNVAEPYIRGRALRHLEKNRIVVFGAGIGSPYFSTDTTAALRAAEIEADAILMAKNGVDGVYNADPKKDANAVKFDELTHGEVIKRGLKIMDATASTLSMDNDIDLVVFNMNEAGNIQRVVFGEHIGTTVSNKVCDEGHHHHHH | soluble
MRLWVLTLVQAHFAILAVADTTVAVEETTKAANETTTPDGPHADCFLCAPTVQCGETVEGDYSSGEVNVLLMKPMEDNDYFIVKGEVFPNAMKIFIDIYKDLSVGKAQEGGNNQPRLLTFEHYFDTNLTFSRSNLHGEGVPDSFREATLPDAIKQKKPWTLMFKMKDGLSAFETGDETGWFNNDIPWNGTATTQSFNIRGGWKTTSIQ | not soluble
MSEEDAEKLFLQEKPTRALLFIGSTGKTYASVISKEIDSTFAHTTRILSKMEQSGLIRFTFEGRIKFVELTKYGEEVEAALKDFRNIISEESPLRKEYLTAEEAGKVDKVRESEGKEYREHEEWEEENESEKDLDPLSAEILEKVRNLRNKIEGIYREAAETGQSKEMLSRKLGPNSRDIKKLYNQIENAETPVDETVVLALEETEGLLESYLKGSKPENV | not soluble
HHHHHHMDLVEKVKELCLELEEENLAKAIERFITLTHGIEKTRGEAFAKASIYGFLEGILTTLKMKYSNEKIETLLNEVKTAREETEALLRKPRPPLLVDNDL | soluble
MSLKITKVEVIPISTPMKRAQLMRGATLARIDGVLLKLHSDEGLVGIADAGDTSSWYRGETQDSITSMICDFFAPKVLLGEDPTKIEKIVGRMDILTRDNNQAKATVDFALHDLVGKRFGVPVYQLLGGKTIERIPLGLVLGAGEPEAVAEEALAVLREGFHFVKLKAGGPLKADIAMVAEVRRAVGDDVDLFIDINGAWTYDQALTTIRALEKYNLSKIEQPLPAWDLDGMARLRGKVATPIYADESAQELHDLLAIINKGAADGLMIKTQKAGGLLKAQRWLTLARLANLPVICGCMVGSGLEASPAAHLLAANDWIAQFPQENAGPLHIHDCLNSRDIDNDIALNVPRFEGGYLYPNDGPGLGIELNEDLVRRLVTPGKAARVVTAEGHHHHHH | soluble
MSLTTPSKKTLLFDLDGTLVDSFPGIRTSFLHTLHEKNWEIPSEERISQVPGPPMEWTFQDLGMTPEQAQDALQTYLEHYGQVGWDLSEAFPGMRDLLIRLKYEGFRLCTATSKGEFFAEKVLRKFEMFDLFEFMGAATDNGNRRSKSAVIKHVLDSVGLDEPNDILMIGDRSHDIEGSSEFGIDCVAVTWGYGSKTEWDAARYTVSTAEELERIIHDWAEGHHHHHH | soluble
MSLGNARMYEALRDYGDRFDTVGIFTFEVDETGTITETGTSISSMLPYIQKWPHIKWLLTIMNHGIANIFTALRNNENGAKDKFLTEIIRIMNKYPWCAGVDIDLERGGGYENKDAANALFRDIYNTVKSYDATKLVNICLPGMIGVQGSVGGENWCVYADLNDYCDTAAIMSYGMAWAGSAPGPVSPRDWLEGIYDYAVSVMSPDKIFMGLPAYGWNWRIHDTPENLGITYRGVSNTYYAAKYWMTGVYNFTGDAPPQPFIPIVAYWDDYNKVPWALPHVYDYMEGWDAVSWEYPLLKGVYNRRRYLTSYGKEQKAEFGTIYIDRNGVPDEYEGNVIITDEMTSLGDAQASAEYRFEIREAGYYDIAVQLCFPYWDKNAIIVSLDGISKTFSENRLWWPYWRRVCWLTLAKGVFLQEGTHAISISGGVPGVQFYGFRVCSGFSEYPFAGEASFMLSPRRFKDVNGVMVEPDRGFKLTFEMLRRKPDSALIWYEDFRDRNILPENYWTVLDGEWDVWQDPDSTENRPYSQLEGYGKLAWKYDGFSDIHIRARLAFPQNSSGRAGVFLGDIFCCLNYDTQRVELYQGNSLLGSYSTSFSKTVDADLRANPNMYTIEMRKRGNKVRVYSGAASTLRFTVNVTGGSGYVGYCSDNRTVCELLRLGDAWVYEPYERFDVELPDGNITSFGRLARTGVTWDDEFQVFSVNNDVEESITRSEDISMDYDFFHSQLLALSCGNDYEVKIILKDINIWISRLFLGDADGFSILYYQDVDSLVYWANEAAYRWKLRGIAIWSLGQEDMRLWEALPKQEGHHHHHH | soluble
MLFERIYEEGLAQASYFIGCQREGKAIVVDARRDIQTYLDLAAKNNMVISAVTETHIHADYLSGTRELAAATGAEIFLSGEGGADWQYGFTGTTLMHNSTIKLGNITITAKHTPGHTPEHLSFLITDGAVSKDPGFMLSGDFVFVGDVGRPDLLDEAAGGVDTRFAGAQQLFHSLKEQFLALPDHIQVYPGHGAGSPCGKALGAIPSTTVGYEKANAWWAPYLRSDDEAGFVEELLDGQPDAHAYFARMKKQNKQGPAVLSTLSPLVKLEAEEVVEKLGSEAVFVDTREQNQVHLGTVVGALNIPRGAKASNFAAWVIDPQKDAQDLIVLAPDANTAADFRDALLRVGIDTVRYFTNSIDGLPTFVPELISPAELAETNYDALIDIRAKSEFAAGSIPGAQQLSGGSAMWRLNELPAGGTLVTFCQSGARNTVVANALRRAGFTVIELEGSYAAWEKSAANPLEHHHHHH | soluble
MTDNTAVRRRYEKSFTERPGFTEDEIEEIREAFNLLDTDGTGTIDPKEIKCAMQSLGLDAKNPMIFRMIADLEKDGYSSIDFEEFMEVITSKLGNKDTREGIQRIFNLFDDDKTGSISLKNLKRVAKELGETLTDEELRDMIDRADSKGEGEISFEDFYTIMTKKSFL | not soluble
